Laboratory results published in US20210079109A1.

How the values were obtained:
human CD63 (human) [1] = target: human CD63 (human) (UniProt P08962); assay: flow cytometry, HEK293 cells
human CD63 (human) [2] = target: human CD63 (human) (UniProt P08962); assay: imaging of stained T47D cells, 10 ug/mL antibody
human CD63 (human) [3] = target: human CD63 (human) (UniProt P08962); assay: ECL, U87MG cells; signal < 100 RLU, classed non-binder

human CD63 (human), sequence (P08962 2-238 limits assumed): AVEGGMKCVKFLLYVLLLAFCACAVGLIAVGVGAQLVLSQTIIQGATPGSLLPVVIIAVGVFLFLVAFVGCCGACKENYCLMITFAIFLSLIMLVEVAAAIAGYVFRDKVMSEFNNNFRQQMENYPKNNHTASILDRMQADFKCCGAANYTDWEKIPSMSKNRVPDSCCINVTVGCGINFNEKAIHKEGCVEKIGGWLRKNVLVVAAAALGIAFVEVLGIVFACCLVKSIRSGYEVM

Row | Substance | S/N (MFI over no-antibody wells) (human CD63 (human) [1]) | Total RFU at 4C (human CD63 (human) [2]) | Total RFU at 37C (2 h) (human CD63 (human) [2]) | binding ratio at 3.7 nM vs NIH3T3 (human CD63 (human) [3])
1 | Isotype Control 2 (antibody) | 1.5 | – | – | –
2 | mIgG2a Isotype control (antibody) | – | -73400 RFU | 65400 RFU | –
3 | Isotype Control 1 (antibody) | 1.4 | – | – | –
4 | Human IgG4 isotype control (antibody) | – | 138000 RFU | -80500 RFU | 4 fold
5 | mIgG1 Isotype control (antibody) | – | -93900 RFU | 57400 RFU | –
